Experimental data as given in US11467166B2, “Compositions and methods for detecting molecule-molecule interactions” (ShanghaiTech University, priority 2017, dated 2022).

Tests used:
CD86/CD80 = conditions: CD28 interaction with CD86/CD80; reported; cited from earlier work
His-MATH = biological target: T1, His-MATH (Homo sapiens, UniProt O43791); assay: Peptide competition assay in the in vitro Pup modification of MATH by PUP-IT^pep1; type: biochemical; conditions: free peptide added at 1-512 μM; 0.2 μM His-MATH, 8 μM Pup(E); anti-His immunoblot
T1 construct: made in house; host or cells: E. coli BL21(DE3)
Description: Pup modification were assayed at 37° C. for 30 min with purified recombinant proteins in a 20 μl reaction volume with 20 mM Tris 8.0, 100 mM NaCl, 10 mM ATP, and 15 mM MgCl2. The reaction also contains purified 1 μM PUP-IT, 10 μM Pup(E) or 10 mM bio-DE28. All the reactions were stopped by direct addition of 6×SDS loading buffer and analyzed on 4-20% SDS-PAGE gels (Genescript, cat. #M42015C).
Peptide competition assay (as in FIG. 2d) was performed in the presence of different peptides. Free pep1 (sequence […], SEQ ID NO: 12) and control peptide (sequence […], SEQ ID NO: 15) were synthesized and purified to >98% pure, confirmed by mass spectrometry. The peptides were dissolved in water and pH adjusted with Tris buffer to 7, stored as 2 mM stock in −80° C. The reactions were set up with 1 μM pup^SBC1, 0.2 μM His-MATH, and 8 μM Pup(E). Different amount of free pep1 or control peptide was added to each reaction to make the final peptide concentration at 1, 2, 4, 8, 16, 32, 64, 128, 256, and 512 μM. All the reactions were stopped by direct addition of 6×SDS loading buffer and analyzed on 4-20% SDS-PAGE gels, followed by immune-blotting with anti-His antibody to identify both unmodified and modified MATH. The density of modified MATH was quantified with ImageJ and then plotted with GraphPad Prism 6.

[1] = biological target: MATH domain from human SPOP (Homo sapiens, UniProt O43791); conditions: peptide binding to MATH domain from human SPOP; known values; read-out: dissociation constant (Kd); cited from earlier work
MATH domain from human SPOP, sequence (O43791 31-161 limits assumed): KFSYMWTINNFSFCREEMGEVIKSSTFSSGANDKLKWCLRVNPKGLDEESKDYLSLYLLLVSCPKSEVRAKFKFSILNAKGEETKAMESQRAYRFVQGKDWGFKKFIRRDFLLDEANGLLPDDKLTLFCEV

T1 sequence (O43791 31-161 limits assumed): as above

Substance	Kd (CD86/CD80) [µM]	inhibition of MATH modification (His-MATH)	Kd [1] [µM]
CD28: co-stimulating receptor normally expressed on the surface of T cells	4		
SPOP substrate-derived MATH-binding peptide LACDEVTSTTSSSTA (SEQ ID NO: 12) [pep1]		dose-dependent inhibition of MATH modification	3.7
SPOP substrate-derived MATH-binding peptide SELDSPSSTSSSSGI (SEQ ID NO: 14), the weakest binder [pep3]			> 250
SPOP substrate-derived MATH-binding peptide TLFPDVSSSTHPYHG (SEQ ID NO: 13) [pep2]			76
pep1(mut): mutated pep1 peptide LACDEDTAAASSSTA (SEQ ID NO: 15), known to have defect on MATH binding		could not be fully inhibited	
